# Results: patent US8318473B2, “Biofuel production” (Bio Architecture Lab, Inc., priority 2007, dated 2012)
# Key:
# [1] = TBA assay of culture media for secreted alginate lyase; details: media of overnight BL21 culture, LB+2% alginate+0.1 mM IPTG; 1:1 with 0.8% TBA, 10 min at 99 degrees Celsius; FIG. 47
# [2] = In vitro pyruvate formation from alginate with purified enzymes; details: ~5 ug purified enzyme with Atu3025, UxuA, KdgK, KdgA; 1% alginate or ~0.5% mannuronate; over night; FIG. 6B, 6C
# Description: The reaction mixture contained 1% alginate or ˜0.5% mannuronate, ˜5 ug of purified Atu3026 (ADH12) or Atu3027 (ADH11), and ˜5 ug of purified oligoalginate lyase (Atu3025), UxuA, KdgK, and KdgA, 2 mM of ATP, and 0.6 mM of NADPH in 20 mM Tris-HCl pH7.0. The reaction was carried out over night and the pyruvate formation was monitored by the pyruvate assay kit (BioVision, Inc).
# [3] = Kinetic testing of oxidation and reduction reactions on various substrates using 2ADH-16; format: biochemical; details: 0.04 mg/mL enzyme, 0.25 mg/mL cofactor, 20 mM Tris HCl pH 6.5(red) or 9.0(ox), 25 C; FIG. 35, 36
# Description: Similar to above, kinetic testing for both oxidation and reduction reactions was performed on various substrates using 2ADH-16. The conditions for these studies were as follows: 0.04 mg/mL enzyme, 0.25 mg/mL cofactor, 20 mM Tris HCl Buffer pH 6.5(red) or 9.0(ox), T=25 C, 100 uL total volume was used.
# [4] = background statement, no test described; cited from earlier work
Molecule,TBA assay result (cleavage of alginate polymer in growth medium) [1],DEHU hydrogenase and mannuronate hydrogenase reactions in pyruvate formation from alginate [2],also measured
"Vs24259: putative Vibrio splendidus protein similar to an alginate lyase, SEQ ID NO: 34; negative control in TBA assay (protein, listed as Vibrio splendidus) MKQITLKTLLASSILLAVGCASTSTPTADFPNNKETGEALLTPVAVSASSHDGNGPDRLVDQDLTTRWSSAGDGEWATLDYGSVQEFDAVQASFSKGNQRQSKFDIQVSVDGESWTTVLENQLSSGKAIGLERFQFEPVVQARYVRYVGHGNTKNGWNSVTGLAAVNCSINACPASHIITSDVVAAEAVIIAEMKAAEKARKDARKDLRSGNFGVAAVYPCETTVECDTRSALPVPTGLPATPVAGNSPSENFDMTHWYLSQPFDHDKNGKPDDVSEWNLANGYQHPEIFYTADDGGLVFKAYVKGVRTSKNTKYARTELREMMRRGDQSISTKGVNKNNWVFSSAPESDLESAAGIDGVLEATLKIDHATTTGNANEVGRFIIGQIHDQNDEPIRLYYRKLPNQETGAVYFAHESQDATKEDFYPLVGDMTAEVGDDGIALGEVFSYRIDVKGNTMTVTLIREGKDDVVQVVDMSNSGYDAGGKYMYFKAGVYNQNISGDLDDYSQATFYQLDVSHDQYKK",little or no cleavage of the alginate polymer has occurred,,
"Vs24254: putative Vibrio splendidus protein similar to an alginate lyase, SEQ ID NO: 32; functional external alginate lyase (protein, listed as Vibrio splendidus) MNKPIFVVVLASLTYGCGGSSSSDSSDPSDTNNSGASYGVVAPYDIAKYQNILSSSDLQVSDPNGEEGNKTSEVKDGNFDGYVSDYFYADEETENLIFKMANYKMRSEVREGENFDINEAGVRRSLHAEISLPDIEHVMASSPADHDEVTVLQIHNKGTDESGTGYIPHPLLRVVWEQERDGLTGHYWAVMKNNAIDCSSAADSSDCYATSYNRYDLGEADLDNFTKFDLSVYENTLSIKVNDEVKVDEDITYWQHLLSYFKAGIYNQFENGEATAHFQALRYTTTQVNGSNDWDINDWKLTIPASKDTWYGSGGDSAAELEPERCESSKDLLANDSDVYDSDIGLSYFNTDEGRVHFRADMGYGTSTENSSYIRSELRELYQSSVQPDCSTSDEDTSWYLDDTRTNATSHELTASLRIEDYPNINNQDPKVVLGQIHGWKINQALVKLLWEGESKPVRVILNSDFERNNQDCNHCDPFSVELGTYSASEEWRYTIRANQDGIYLATHDLDGTNTVSHLIPWGQDYTDKDGDTVSLTSDWTSTDIAFYFKAGIYPQFKPDSDYAGEVFDVSFSSLRAEHN",positive TBA assay result of pink color,,
"Atu3027: alcohol dehydrogenase isolated from Agrobacterium tumefaciens C58, polypeptide SEQ ID NO: 90 (protein, Agrobacterium tumefaciens C58) MRSELPEGFFGPREWARLNAVADIIPGFPHTDFDTANGAEALAEADILLAAWGTPSLTRERLSRAPRLKMLAYAASSVRMVAPAEFWETSDILVTTAASAMAVPVAEFTYAAIIMCGKDVFRLRDEHRTERGTGVFGSRRGRSLPYLGNHARKVGIVGASRIGRLVMEMLARGTFEIAVYDPFLSAEEAASLGAKKAELDELLAWSDVVSLHAPILPETHHMIGARELALMADHAIFINTARGWLVDHDALLTEAISGRLRILIDTPEPEPLPTDSPFYDLPNVVLTPHIAGALGNELRALSDLAITEIERFVAGLAPLHPVHKQDMERMA",,capable of catalyzing both DEHU hydrogenase and mannuronate hydrogenase reactions,
"2ADH-16: secondary alcohol dehydrogenase isolated from Klebsiella pneumoniae subsp. pneumoniae MGH 78578, SEQ ID NO: 138 (protein, Klebsiella pneumoniae subsp. pneumoniae MGH78578) MTAFHNKSVLVLGGSRGIGAAIVRRFVADGASVVFSYSGSPEAAERLAAETGSTAVQADSADRDAVISLVRDSGPLDVLVVNAGIALFGDALEQDSDAIDRLFHINIHAPYHASVEAARRMPEGGRIIVIGSVNGDRMPLPGMAAYALSKSALQGLARGLARDFGPRGITVNVVQPGPIDTDANPENGPMKELMHSFMAIKRHGRPEEVAGMVAWLAGPEASFVTGAMHTIDGAFGA",,,oxidation and reduction of various substrates [3]: capable of catalyzing both the oxidation and reduction of a wide variety of substrates
"Atu3026: alcohol dehydrogenase isolated from Agrobacterium tumefaciens C58, polypeptide SEQ ID NO: 92 (protein, Agrobacterium tumefaciens C58) MQRFTNRTIVVAGAGRDIGRACAIRFAQEGANVVLTYNGAAEGAATAVAEIEKLGRSALAIKADLTNAAEVEAAISAAADKFGEIHGLVHVAGGLIARKTIAEMDEAFWHQVLDVNLTSLFLTAKTALPKMAKGGAIVTFSSQAGRDGGGPGALAYATSKGAVMTFTRGLAKEVGPKIRVNAVCPGMISTTFHDTFTKPEVRERVAGATSLKREGSSEDVAGLVAFLASDDAAYVTGACYDINGGVLFS",,capable of catalyzing both DEHU hydrogenase and mannuronate hydrogenase reactions,
"BAL: benzaldehyde lyase (BAL) from Pseudomoas fluorescens, ThDP-dependent C—C ligase, SEQ ID NOS: 143-144 (protein, listed as Pseudomonas fluorescens) MAMITGGELVVRTLIKAGVEHLFGLHGAHIDTIFQACLDHDVPIIDTRHEAAAGHAAEGYARAGAKLGVAGHGGRGIYQCGHAHCQRLAGSQGRCIPHPGSGALRDDETNTLQAGIDQVAMAAPITKWAHRVMATEHIPRLVMQAIRAALSAPRGPVLLDLPWDILMNQIDEDSVIIPDLVLSAHGARPDPADLDQALALLRKAERPVIVLGSEASRTARKTALSAFVAATGVPVFADYEGLSMLSGLPDAMRGGLVQNLYSFAKADAAPDLVLMLGARFGLNTGHGSGQLIPHSAQVIQVDPDACELGRLQGIALGIVADVGGTIEALAQATAQDAAWPDRGDWCAKVTDLAQERYASIAAKSSSEHALHPFHASQVIAKHVDAGVTVVADGALTYLWLSEVMSRVKPGGFLCHGYLGSMGVGFGTALGAQVADLEAGRRTILVTGDGSVGYSIGEFDTLVRKQLPLIVIIMNNQSWGATLHFQQLAVGPNRVTGTRLENGSYHGVAAAFGADGYHVDSVESFSAALAQALAHNRPACINVAVALDPIPPEELILIGMDPFA",,,rate of benzoin formation from two benzaldehyde molecules [4]: 320 μmol (benzoin) mg (protein)^−1 min^−1
